What is called EC50 is the concentration at which the effect is half-maximal. For orientation: IC50 means the concentration at which inhibition is half-maximal. Usually Kd stands for the equilibrium constant for the complex coming apart.

Results on 28 molecules are retold here after patent US20240150440A1 (LUMEN BIOSCIENCE, published 2024).

The target in experiment [1] is SARS-COV-2 Wuhan Reference RBD (SARS-CoV-2, UniProt P0DTC2 319-541). Nature of the experiment: ELISA, RBD coated.
Experiment [2] addresses T1, recombinant SARS-CoV-2 RBD with C-terminal AviTag (SARS-CoV-2, UniProt P0DTC2 319-541). Nature of the experiment: ELISA, competition with coated ACE2-Fc for RBD [Cont. 8]. Background: ELISA stands for enzyme-linked immunosorbent assay.
Experiment [3] concerns the target T1, recombinant SARS-CoV-2 RBD with …. Nature of the experiment: BLI, biotinylated RBD on streptavidin biosensors [Cont. 6]. Background: In BLI a coated tip is dipped into the sample, and binding shifts an interference pattern.
Experiment [4] has the same target. Nature of the experiment: ELISA, competition with coated ACE2-Fc for RBD [Cont. 6].
The target is the same in experiment [5].

Like-named read-outs stand apart in the source and are kept apart here.

B1: PP1096 MBP-5HVZ-PAPA-RN-3-H6 (VHH)
VHH: QVQLVESGGGLVQPGGSLRLSCAASGFEFTYRAVHWFRQAPGKGREWVAGVVSGGSTYYADSVKGRFTISRDNAKNTVYLQMNSLKPEDTAVYYCNAGPQAEEDTYDYWGQGTQVTVSS
Consider B1, for which, in experiment [1], a half-maximal response (EC50) required 1.47 nM. Moreover, the IC50 in experiment [2] turned out to be 46.8 nM.

B2: PP1100 MBP-5HVZ-PAPA-RN-14-H6 (VHH)
VHH: QVQLVESGGGLVQPGGSLRLSCAASGENFSGNLVHWFRQAPGKAREGVATVTSTGSGYYADSVKGRFTISRDNAKNTVYLQMNSLKPEDTAVYYCAAKHQKGEIPYYDWGQGTQVTVSS
notes: Form: Dimer
In experiment [1], B2 came in with an EC50 of 0.31 nM. Moreover, in experiment [2], the IC50 is 3.2 nM.

B3: PP885 MBP-R5b-C5-H6 (VHH)
VHH: QVQLVESGGGLVQPGGSLRLSCAASGSPFKTQTVHWFRQAPGKGREWVASITSGSGTQYMDSVKGRFTISRDNAKNTVYLQMNSLKPEDTAVYYCAAANDGYGVDWGQGTQVTVSS
notes: Form: Monomer
For the molecule B3, the Kd in experiment [3] is 88.5 nM.

B4: PP904 MBP-5HVZ-R5b-C5-H6 (VHH)
VHH: QVQLVESGGGLVQPGGSLRLSCAASGSPFKTQTVHWFRQAPGKGREWVASITSGSGTQYMDSVKGRFTISRDNAKNTVYLQMNSLKPEDTAVYYCAAANDGYGVDWGQGTQVTVSS
notes: Form: Dimer
On to B4, for which the IC50 in experiment [4] came to 2.5 nM. Further, it took 1.06 nM to reach a half-maximal effect in experiment [1] (EC50). Moreover, the Kd in experiment [3] was determined as 11.8 nM.

B5: MBP-R5C-E3-H6 (VHH, not shown: large carriers; small tags and cut ends)
VHH: QVQLVESGGGLVQPGGSLRLSCAASGSFFSINAVHWFRQAPGKEREFVASISVGDSRSYRDSVKGRFTISRDNAKNTVYLQMNSLKPEDTAVYYCAAQIYITTYELYDYWGQGTQVTVSS
Turning to B5, the Kd in experiment [5] was approximately 1370 nM.

B6: MBP-5HVZ-R5C-E3-H6 (VHH, not shown: large carriers; small tags and cut ends)
VHH: QVQLVESGGGLVQPGGSLRLSCAASGSFFSINAVHWFRQAPGKEREFVASISVGDSRSYRDSVKGRFTISRDNAKNTVYLQMNSLKPEDTAVYYCAAQIYITTYELYDYWGQGTQVTVSS
As to B6, the IC50 in experiment [5] is 9.2 nM.

B7: PP1094 MBP-5HVZ-PAPA-RN-1-H6 (VHH)
VHH: QVQLVESGGGLVQPGGSLRLSCAASGYIFEGGPTAWFRQAPGKGREFVAAITTSGETSYAYSVKGRFTISRDNAKNTVYLQMNSLKPEDTAVYYCNATDRDETGYDYWGQGTQVTVSS
In experiment [1], B7 returned an EC50 of 0.96 nM. Moreover, the IC50 in experiment [2] is 7.8 nM.

B8: PP933 MBP-5HVZ-R5e-C1-H6 (VHH)
VHH: QVQLVESGGGLVQPGGSLRLSCAASGSIPYVQAMSWFRQAPGKGREGVASIGWGGGTYYADSVKGRFTISRDNAKNTVYLQMNSLKPEDTAVYYCAAKFRENFSFYDYWGQGTQVTVSS
notes: Form: Dimer
Regarding B8, a half-maximal response in experiment [1] (EC50) required 4.9 nM. In addition, the IC50 in experiment [2] is 1.9 nM.

B9: MBP-5HVZ-R5C-A1-H6 (VHH, not shown: large carriers; small tags and cut ends)
VHH: QVQLVESGGGLVQPGGSLRLSCAASGLDVSINFMHWYRQAPGKEREGVAGITWQGSTYYADSVKGRFTISRDNAKNTVYLQMNSLKPEDTAVYYCATVWAGGTPNDYWGQGTQVTVSS
Regarding B9, in experiment [5], the IC50 came to 10.3 nM and the Kd was determined as 379 nM.

B10: PP935 MBP-5HVZ-S3b-E11-H6 (VHH)
VHH: QVQLVESGGGLVQPGGSLRLSCAASGDIYSQSAMAWYRQAPGKEREFVAAITTTGSRSYKDSVKGRFTISRDNAKNTVYLQMNSLKPEDTAVYYCAAFAVRSSSVSDAYDYWGQGTQVTVSS
notes: Form: Dimer
The molecule B10 displayed an EC50 in experiment [1] of 0.47 nM. Moreover, the 50% inhibitory concentration (IC50) in experiment [2] stood at 12.2 nM.

B11: PP1095 MBP-5HVZ-PAPA-RN-2-H6 (VHH)
VHH: QVQLVESGGGLVQPGGSLRLSCAASGSYFSKNAVHWYRQAPGKGREWVAALTNSGSGNYKDSVKGRFTISRDNAKNTVYLQMNSLKPEDTAVYYCTANISESTGQGYDYWGQGTQVTVSS
B11: the EC50 in experiment [1] was found to be 0.78 nM. For the same molecule, the IC50 in experiment [2] was found to be 3.2 nM.

B12: PP901 MBP-5HVZ-R1e-B2-H6 (VHH)
VHH: QVQLVESGGGLVQPGGSLRLSCAASGQITAENYMHWYRQAPGKQREWVAAITTGGSTLYADSVKGRFTISRDNAKNTVYLQMNSLKPEDTAVYYCNADRSYFPDYWGQGTQVTVSS
notes: Form: Dimer
For the molecule B12, the Kd in experiment [3] stood at 197 nM.

B13: PP883 MBP-R1e-D4-H6 (VHH)
VHH: QVQLVESGGGLVQPGGSLRLSCAASGSIREINAMHWVRQAPGKGRELVASIDSGSLDYYADSVKGRFTISRDNAKNTVYLQMNSLKPEDTAVYYCAASRSGDYRYWGQGTQVTVSS
notes: Form: Monomer
For B13, in experiment [3], the Kd worked out at 47 nM.

B14: PP922 MBP-R5a-F5-H6 (VHH)
VHH: QVQLVESGGGLVQPGGSLRLSCAASGYHASILAMHWVRQAPGKEREWVASMTWSDMTQYSDSVKGRFTISRDNAKNTVYLQMNSLKPEDTAVYYCAATYVTRDRPWTHWGQGTQVTVSS
notes: Form: Monomer
In the case of B14, the IC50 in experiment [2] amounted to 97.9 nM.

B15: PP1098 MBP-5HVZ-PAPA-RN-9-H6 (VHH)
VHH: QVQLVESGGGLVQPGGSLRLSCAASGLRFAMTEMAWFRQAPGKQREFVALITEGGSGSYGDSVKGRFTISRDNAKNTVYLQMNSLKPEDTAVYYCAALHYTEGANTESATTFDYWGQGTQVTVSS
B15 showed a concentration for a half-maximal effect (EC50) in experiment [1] of 0.83 nM. In addition, in experiment [2], the IC50 was 2.3 nM.

B16: R5C-A2 (competition ELISA sample) (VHH)
VHH: QVQLVESGGGLVQPGGSLRLSCAASGDIFSKNAMHWVRQAPGKQREFVAGIYSDGSSLYADSVKGRFTISRDNAKNTVYLQMNSLKPEDTAVYYCAALDYSARYRTWGQGTQVTVSS
For the molecule B16, in experiment [5], the IC50 was 13.7 nM and the Kd is 13.2 nM.

B17: PP880 MBP-R5a-B5-H6 (VHH)
VHH: QVQLVESGGGLVQPGGSLRLSCAASGDDFIENAISWYRQAPGKGREWVAAVTLGGHSNYADSVKGRFTISRDNAKNTVYLQMNSLKPEDTAVYYCNYPVGIPAVAIDGRRSYGYWGQGTQVTVSS
notes: Form: Monomer
Regarding B17, the IC50 in experiment [4] was 43.9 nM. Further, the Kd in experiment [3] stood at 60.8 nM.

B18: PP899 MBP-5HVZ-R5a-B5-H6 (VHH)
VHH: QVQLVESGGGLVQPGGSLRLSCAASGDDFIENAISWYRQAPGKGREWVAAVTLGGHSNYADSVKGRFTISRDNAKNTVYLQMNSLKPEDTAVYYCNYPVGIPAVAIDGRRSYGYWGQGTQVTVSS
notes: Form: Dimer
As to B18, the IC50 in experiment [4] was 0.9 nM.

B19: PP881 MBP-R5a-F2-H6 (VHH)
VHH: QVQLVESGGGLVQPGGSLRLSCAASGSISSIEAMSWFRQAPGKQREGVATMASGGDTSYADSVKGRFTISRDNAKNTVYLQMNSLKPEDTAVYYCAAQTYRPDTWGRYTFWGQGTQVTVSS
notes: Form: Monomer
Regarding B19, the Kd in experiment [3] amounted to 705 nM.

B20: PP900 MBP-5HVZ-R5a-F2-H6 (VHH)
VHH: QVQLVESGGGLVQPGGSLRLSCAASGSISSIEAMSWFRQAPGKQREGVATMASGGDTSYADSVKGRFTISRDNAKNTVYLQMNSLKPEDTAVYYCAAQTYRPDTWGRYTFWGQGTQVTVSS
notes: Form: Dimer
In the case of B20, in experiment [4], the 50% inhibitory concentration (IC50) turned out to be 1.7 nM. The response in experiment [1] was half-maximal at 0.47 nM (EC50). Besides, in experiment [3], the Kd is 9.13 nM.

B21: PP884 MBP-R1i-A11-H6 (VHH)
VHH: QVQLVESGGGLVQPGGSLRLSCAASGSILQINAIHWFRQAPGKQREEVAAITSGGSTGYADSVKGRFTISRDNAKNTVYLQMNSLKPEDTAVYYCAATSTRGGLDSDYWGQGTQVTVSS
notes: Form: Monomer
As to B21, the IC50 in experiment [4] stood at 173 nM. Besides, in experiment [3], the Kd turned out to be 23.7 nM.

B22: PP903 MBP-5HVZ-R1i-A11-H6 (VHH)
VHH: QVQLVESGGGLVQPGGSLRLSCAASGSILQINAIHWFRQAPGKQREEVAAITSGGSTGYADSVKGRFTISRDNAKNTVYLQMNSLKPEDTAVYYCAATSTRGGLDSDYWGQGTQVTVSS
notes: Form: Dimer
Regarding B22, the IC50 in experiment [4] turned out to be 1.5 nM. Besides, the concentration giving a half-maximal response (EC50) in experiment [1] is 0.27 nM. The Kd in experiment [3] was found to be 6.98 nM.

B23: MBP-R5C-B1-H6 (VHH, not shown: large carriers; small tags and cut ends)
VHH: QVQLVESGGGLVQPGGSLRLSCAASGSGFSNNAMHWYRQAPGKQREGVAGITSGSVSFYADSVKGRFTISRDNAKNTVYLQMNSLKPEDTAVYYCAAVTGSSTGNAGQGYLTWGQGTQVTVSS
Consider B23, for which the Kd in experiment [5] turned out to be 55.3 nM.

B24: MBP-5HVZ-R5C-B2-H6 (VHH, not shown: large carriers; small tags and cut ends)
VHH: QVQLVESGGGLVQPGGSLRLSCAASGSIFSLNWVHWFRQAPGKSREGVASINSGGHADYSDSVKGRFTISRDNAKNTVYLQMNSLKPEDTAVYYCAAGPYGAYNFNSWGQGTQVTVSS
Regarding B24, in experiment [5], the IC50 was 5.9 nM and the Kd is 57.3 nM.

B25: PP1097 MBP-5HVZ-PAPA-RN-5-H6 (VHH)
VHH: QVQLVESGGGLVQPGGSLRLSCAASGSSFRILAMHWYRQAPGKNREWVAVITSNGNTYYADSVKGRFTISRDNAKNTVYLQMNSLKPEDTAVYYCNADTLDLDDGATYNYWGQGTQVTVSS
For the molecule B25, a half-maximal response in experiment [1] (EC50) required 0.25 nM. Further, the IC50 in experiment [2] turned out to be 2.3 nM.

B26: PP1147 MBP-5HVZ-PAPA-R5a-B7-H6 (VHH)
VHH: QVQLVESGGGLVQPGGSLRLSCAASGAFFSYGAIHWFRQAPGKQREEVAAITSGGSTGYADSVKGRFTISRDNAKNTVYLQMNSLKPEDTAVYYCNAGVVWLPSNAAYNLWGQGTQVTVSS
notes: Form: Dimer
With B26, the IC50 in experiment [4] turned out to be 2.4 nM. Further, the EC50 in experiment [1] came to 0.36 nM.

B27: PP1135 MBP-4B0F-PAPA-R5a-B7-H6 (VHH)
VHH: QVQLVESGGGLVQPGGSLRLSCAASGAFFSYGAIHWFRQAPGKQREEVAAITSGGSTGYADSVKGRFTISRDNAKNTVYLQMNSLKPEDTAVYYCNAGVVWLPSNAAYNLWGQGTQVTVSS
notes: Form: Heptamer
With B27, the IC50 in experiment [4] worked out at 18.2 nM.

B28: PP1159 MPB-scTRP-PAPA-R5a-B7-H6 (VHH)
VHH: QVQLVESGGGLVQPGGSLRLSCAASGAFFSYGAIHWFRQAPGKQREEVAAITSGGSTGYADSVKGRFTISRDNAKNTVYLQMNSLKPEDTAVYYCNAGVVWLPSNAAYNLWGQGTQVTVSS
notes: Form: Trimer
B28: the IC50 in experiment [4] amounted to 56.5 nM.
